A word on the koff: it is the rate constant with which the complex falls apart. High values mean a short-lived complex, low ones a long-lived complex. For orientation: Kd means the equilibrium constant for the complex coming apart. Read a low Kd as tighter binding. A word on the kon: it is the rate constant with which the complex forms.

Experiment [1] deals with T1, human VEGFA165 (human, UniProt P15692 207-395).
T1 construct: Recombinant soluble protein; also called hVEGFA165; rhVEGFA
The experiment is described as follows: Biacore SPR at 25 C; antibody captured on Protein A, hVEGFA165 as analyte; 1:1 fit; off-rate too slow to quantitate accurately. On the procedure:
(§1) Immobilization of soluble Protein A (Calbiochem #539202) on a CM4 (GE Healthcare #BR-1005-34) or CMS (GE Healthcare #BR-1000-99) is prepared using EDC/NHS amine coupling method (GE Healthcare #BR-1000-50). Briefly, the surfaces of all four flow cells is activated by injecting a 1:1 mixture of EDC/NHS for seven minutes at 10 μL/min After which, soluble protein A is diluted to 50-100 μg/mL in 10 mM acetate buffer, pH 4.5, and immobilized for seven minutes onto flow cell (Fc) 2, 3 or 4 at a flow rate of 10 μL/min. Unreacted sites still remaining on the chip surface are blocked with a seven minute injection of ethanolamine at 10 μL/min Running buffer is HBS-EP+ (GE Healthcare #BR-1006-69) with addition of 100 mM NaCl. Compound samples are prepared at 1 μg/mL by dilution into running buffer. […] Resultant data is processed using standard double-referencing and fit to a 1:1 binding model using Biacore 2000 Evaluation software, version 4.1, to determine the association rate (kₒₙ, M⁻¹s⁻¹ units), dissociation rate (koff, s⁻¹ units). Calculation of the equilibrium dissociation constant (KD) is calculated from the following relationship, KD=koff/kₒₙ, and is presented in molar units.

Experiment [2] addresses T1, human VEGFA165. The experiment is described as follows: Biacore SPR at 25 C; antibody captured on Protein A, hVEGFA165 as analyte; value called an upper limit. The protocol:
as §1
(Surface plasmon resonance follows binding to a sensor surface in real time, without labels.)

In experiment [3] the target is T1, human VEGFA165. The experiment is described as follows: Biacore SPR at 25 C; antibody captured on Protein A, hVEGFA165 as analyte; 1:1 fit. The protocol:
as §1

Experiment [4] deals with T1, human VEGFA165. The experiment is described as follows: KinExA kinetic exclusion assay at 37 C, solution equilibrium with hVEGFA165. From the text: (§2) A KinExA 3200 instrument is used to measure binding kinetics to human VEGFA165. Briefly, human VEGFA165 is covalently coupled to NHS-activated sepharose beads (GE Healthcare #17-0906-01) and the binding of free Mab to the conjugated beads is detected on the KinExA 3200. […] (depending on the temperature analyzed) in Casein Blocking Buffer (ThermoFisher #37528). […] It follows that the relative intensity of signal generated in these steps is proportional to the degree of free/uncomplexed compound present in each solution tested. The resultant composite set of fluorescent intensities is plotted as a function of the concentration of human VEGFA165 present in each discrete sample and fit using the N-curve analysis software (KinExA) to a standard two state binding model to determine KD for the given MOI. Statistical confidence is reported by calculation of the 95% confidence intervals.
Background: In KinExA the mixture passes briefly over coated beads that capture the unbound partner.

The target of experiment [5] is T1, human VEGFA165. The experiment is described as follows: KinExA kinetic exclusion assay at 25 C, solution equilibrium with hVEGFA165.
Excerpt: as §2

Experiment [6] has as its target T1, human VEGFA165. The experiment is described as follows: cell-based or functional assay.

A value given as a limit tells only on which side of the number the result lay.

T1 sequence (P15692 other isoform, or with tags, fused parts or gaps): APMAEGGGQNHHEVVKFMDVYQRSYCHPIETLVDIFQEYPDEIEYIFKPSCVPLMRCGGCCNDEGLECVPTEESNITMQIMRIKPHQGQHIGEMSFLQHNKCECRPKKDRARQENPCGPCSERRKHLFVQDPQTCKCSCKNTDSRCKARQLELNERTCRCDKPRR

B1: parental anti-VEGFA antibody of Compound A (antibody, human IgG4 S228P, kappa, F234A L235A, V domains shown)
VH: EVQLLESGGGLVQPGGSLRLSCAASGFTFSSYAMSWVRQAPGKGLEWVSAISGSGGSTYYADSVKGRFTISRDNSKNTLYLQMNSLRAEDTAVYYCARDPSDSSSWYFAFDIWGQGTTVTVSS
VL: DIVMTQSPATLSVSPGQRATLSCRASQNIRNNLAWYQQKRGQAPRLLIYGASTRATGIPDRFSGSGSGADFTLTISKLEPEDFAVYYCQQYGSSPRTFGQGTKVDIKR
notes: also called Parental VEGFA Ab; parental VEGFA antibody
Take B1: the koff with human VEGFA165 [1] was 3.9e-05 s⁻¹. Further, the Kd was ≤ 0.0132 nM in the experiment with human VEGFA165 [2], 0.183 nM with human VEGFA165 [4] and 0.027 nM in the experiment with human VEGFA165 [5]. In addition, in the experiment with human VEGFA165 [3], the kon turned out to be 2.93e+06 M⁻¹ s⁻¹. Further, the “IC50 for inhibition of VEGFA165 induced proliferation of ECFC (3H thymidine)” value with human VEGFA165 [6] is 1.38 nM. The “IC50 for inhibition of VEGFA induced cord formation in ADSC/ECFC co-culture (total tube area)” value in the experiment with human VEGFA165 [6] worked out at 1.57 nM.

The values are drawn from patent US20160215045A1 (Eli Lilly, published 2016).
